Experimental findings from patent publication CN110790839A (JIANGSU HENGRUI MEDICINE CO; SHANGHAI HENGRUI …, dated 2020) are described below.

What is called Kd is a measure of binding affinity in units of concentration. A lower Kd goes with a tighter complex.

Sequences and labels used below:
B1: Ab05 (antibody, human IgG4 S228P, kappa, F234A L235A, V domains shown)
VH: EVQLVESGGGLVQPGGSLRLSCAASGFTFSSYMMSWVRQAPGKGLEWVATISGGGANTYFADSVKGRFTISRDNAKNSLYLQMNSLRAEDTAVYYCARTQIGFTNWGQGTTVTVSS
VL: DIQMTQSPSSLSASVGDRVTITCLASQTIGTWLTWYQQKPGKAPKLLIYTATSLADGVPSRFSGSGSGTDFTLTISSLQPEDFATYYCQQAYSIPWTFGGGTKVEIKR
notes: also called 抗PD-1抗体Ab05
B2: H005-1 (antibody, human IgG4 S228P, kappa, F234A L235A, V domains shown)
VH: B1 VH with F60Y, A61P, T99Q, Q100L, I101Y, G102Y, T104D, N105Y
VL: B1 VL with A91V
notes: Parent antibody from WO2015085847; also called 亲本抗体H005-1; H005-1抗体
B3: Ab01 (antibody, human IgG4 S228P, kappa, F234A L235A, V domains shown)
VH: B1 VH
VL: B1 VL with R18I, A91V
notes: also called 抗PD-1抗体Ab01

Substitutions are numbered along the chain they refer to.

T1 sequence (Q15116 25-167 limits assumed): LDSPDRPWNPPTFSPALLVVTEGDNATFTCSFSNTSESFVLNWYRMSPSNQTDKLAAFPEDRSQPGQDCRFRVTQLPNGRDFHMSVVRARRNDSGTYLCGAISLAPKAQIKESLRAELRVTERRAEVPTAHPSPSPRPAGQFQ

The assay addresses T1, 人PD-1抗原(Cat.#10377H08H，Sino Biological) (human, UniProt Q15116 25-167).
T1 construct: Bought reagent, used as the analyte in Biacore; also called human PD-1; PD-1-His
Description: SPR, Biacore T200; IgG captured on Protein A chip, human PD-1 as analyte, 1:1 Langmuir fit.
Turning to B1, the Kd was determined as 2.8 nM.
B2: the Kd was 14.6 nM.
Regarding B3, the Kd was 2.56 nM.
